Measured values as given in patent publication US20230141962A1.

What was measured:
[1] = biological target: SARS-CoV-2 S1 Beta Variant (K417N, E484K, N501Y, D614G) (SARS-CoV-2), P0DTC2; conditions: remark: other sources report otherwise
[2] = biological target: SARS-CoV-2 S1 (D614G) (SARS-CoV-2), P0DTC2; conditions: remark: other sources report otherwise

B1: scFv clone #26 (scFv)
scFv: QAVLTQAPSASGTLGQQVTISCSGTTSNIGRNTVNWYQHLPGTAPKLLIFVSNQRPSGVPDRFSGSKSGTSASLVISGLQSEDEADYYCGAWDDSLDGMLFGGGTKLTVLGSRGGGGSGGGGSGGGGSLEMAQVQLVQSGAEVKKPGASVKVSCKASGYTFTSYGISWVRQAPGQGLEWMGWISAYNGNTNYAQKLQGRVTMTTDTSTSTAYMELRSLRSDDTAVYYCARGYYGDLDPWGQGTLVTVSSTSGQAGQ
[1]
  IC50: 2.27 nM
[2]
  IC50: 1.4 nM
